Laboratory results as given in patent US8278415B2, “Dimeric high affinity EGFR constructs and uses thereof” (Centocor, Inc., priority 2006, dated 2012).
≈ marks a conversion by molar mass, not a printed value. Where two headings read alike, the source gives them in different places.

Key:
[1] = biological target: T1, sEGFR-MMB (Homo sapiens, UniProt P00533); assay: Phage ELISA on coated sEGFR-MMB; assay type: binding
T1 construct: made in house; host or cells: HEK 293E
Procedure: (§1) The protein solution was removed and wells were rinsed twice with Tris-Buffered Saline containing 0.05% Tween-20 (TBS-T) using a plate washer (Embla). The wells were blocked with Starting Block in TBS for 1 hr at room temperature and rinsed twice with TBS-T. An equal volume of phage supernatant and Starting Block in TBS were incubated in the wells for 1 hr at room temperature, and the wells were rinsed five times with TBS-T. Anti-M13/horseradish peroxidase conjugate (Amersham), diluted 1:5000 in Starting Block in TBS, was added into the wells and incubated for 1 hour at room temperature, and then the wells were rinsed five times with TBS-T. Finally, chemiluminescent peroxidase substrate (Roche) was added to the wells, and chemiluminescence was measured on a Tecan plate reader.
(§2) Phage were amplified in XL-1 Blue host cells and purified by precipitation with 6% polyethylene glycol-8000/0.5 M sodium chloride. The precipitated phage were resuspended in phosphate-buffered saline in a volume that was 1/100th the original culture volume. […] The binding reaction was incubated for 1 hr at room temperature, and then bound phage were detected with anti-M13/HRP as above. For ELISAs with biotinylated receptors, streptavidin at 5 μg/ml was coated in the wells overnight at 4° C. […] The wells were rinsed with TBS-T and then blocked with Starting Block. Bound phage were washed and detected with anti-M13/HRP as described above.
(§3) The plates were held overnight at room temperature, washed twice with TBST (0.5M Tris Base, 9% NaCl, 0.05% tween, pH 7.6), and loaded with 200 μL per well of Starting Block (Pierce). […] The plates were held at room temperature for 1.5 hours for blocking Plates were then washed twice with TBST and phage were added. The phage solutions were crude phage supernatant from overnight cultures diluted four-fold with Starting Block. After a one-hour incubation, the plates were washed thrice with TBST and 100 μL of a 1:5000 dilution of phage binding antibody conjugate (α-M13-HRP) was added to the wells. EGF was added if applicable. After a one-hour incubation the plates were washed five times with TBST, 100 μL of POD (BM Chemiluminescence ELISA substrate; Roche Applied Science) was added, and chemiluminescene recorded.

[2] = biological target: T2, b-sEGFR-His (Homo sapiens, UniProt P00533); assay: Phage ELISA on biotinylated sEGFR-His6 captured on streptavidin; assay type: binding; settings: biotinylated and immobilized on streptavidin
T2 construct: made in house; host or cells: HEK293E
Procedure: as §2

[3] = biological target: T1, sEGFR-MMB; assay: Competitive phage ELISA (EGF, TGF-α, IMC-c225 as competitive agent); assay type: binding
Procedure: as §2

[4] = test system: MDA-MB-468; assay: cells; settings: Homo sapiens
[5] = biological target: T3, EGF + sEGFR-MMB Complex (Homo sapiens, UniProt P00533); assay: Phage ELISA on sEGFR-MMB in the presence of EGF; assay type: binding
T3 construct: made in house
Procedure: as §3

[6] = biological target: T4, sEGFR-His6 (Homo sapiens, UniProt P00533); assay: Phage ELISA on coated sEGFR-His6; assay type: binding
T4 construct: made in house; host or cells: HEK293E
Procedure: as §3

[7] = biological target: Control-MMB (Homo sapiens, UniProt P01857); assay: Phage ELISA on Control-MMB; assay type: binding
Procedure: as §1
The plates were held overnight at room temperature, washed twice with TBST (0.5M Tris Base, 9% NaCl, 0.05% tween, pH 7.6), and loaded with 200 μL per well of Starting Block (Pierce). […] The plates were held at room temperature for 1.5 hours for blocking Plates were then washed twice with TBST and phage were added. […] After a one-hour incubation the plates were washed five times with TBST, 100 μL of POD (BM Chemiluminescence ELISA substrate; Roche Applied Science) was added, and chemiluminescene recorded.

[8] = test system: A431 cells; assay: Flow cytometry of phage binding to A431 cells; assay type: cell-based, human; settings: for binding to A431 tumor cells: anti-phage-FITC
Procedure: (§4) To evaluate whether the selected peptides from phage display can bind to tumor cells that overexpress EGFR, A431 cells (epidermoid cancer) or an EGFR negative tumor cells, MCF-7 (breast carcinoma) were tested in a flow cytometry assay using fluorescence detection (FACS). For P145, PP146 and their control phage, 2.5×10^5 A431 cells were resuspended in 25 μl of flow staining buffer (dPBS with 1% BSA, 0.09% sodium azide) and incubated with 25 μl of phage clones for 1 hour at 4° C. […] Cells were washed two times with flow staining buffer and then incubated with 0.5 μg of mouse anti M13/fd/Fl filamentous phages monoclonal antibody conjugated to FITC (Fitzgerald Industries International, Inc. Concord, Mass.) for 45 minutes at 4° C. Cells were washed two times with flow staining buffer and acquired by FACSCalibur (BD, Franklin Lakes, N.J.) to detect bound phages on tumor cell surface.
A431 cells (epidermoid cancer) which overexpress EGFR and EGFR-negative tumor cells, MCF-7 (breast carcinoma) were tested in a flow cytometry assay. Tumor cells (A431 and MCF-7) were harvested with 0.25% tyrpsin-EDTA and washed twice with FACS staining buffer (dPBS with 1% BSA, 0.09% sodium azide). […] After binding at 4° C., cells were washed twice with FACS staining buffer to remove unbound phage and then incubated with 0.5 μg of mouse anti-M13 monoclonal antibody conjugated to FITC (Fitzgerald Industries International, Inc. Concord, Mass.) for 1 hour at 4° C. Mouse anti-M13-FITC incubated with cells without phage was used as background binding. Cells were washed twice with FACS staining buffer to remove unbound detection antibody.

[9] = test system: MCF-7; assay: Flow cytometry of phage binding to MCF-7 cells; assay type: cell-based, human
Procedure: as §4
A431 cells (epidermoid cancer) which overexpress EGFR and EGFR-negative tumor cells, MCF-7 (breast carcinoma) were tested in a flow cytometry assay. Tumor cells (A431 and MCF-7) were harvested with 0.25% tyrpsin-EDTA and washed twice with FACS staining buffer (dPBS with 1% BSA, 0.09% sodium azide). […]

[10] = biological target: T5, b-sEGFR-MMB (Homo sapiens, UniProt P00533); assay: Phage ELISA on biotinylated sEGFR-MMB captured on streptavidin; assay type: binding
T5 construct: made in house; host or cells: HEK 293E
Procedure: as §2

LPDDSLPELICKVRG (Random peptide) [P175]
binding to sEGFR-MMB (in words) [1]: bound sEGFR-MMB | binding to sEGFR-His6 (in words) [2]: not sEGFR-His6 | competition with EGF, TGF-α, IMC-c225 (in words) [3]: did not compete with EGFR ligands

COc1cccc2c1C(=O)c1c(O)c3c(c(O)c1C2=O)C[C@@](O)(C(=O)CO)C[C@@H]3O[C@H]1C[C@H](N)[C@H](O)[C@H](C)O1 [Doxorubicin]
IC50 ([4]; MDA-MB-468, read-out: IC50 D4): 2.5 µg/mL (≈ 4.6 µM) | IC50 ([4]; MDA-MB-468, read-out: IC50 D6): < 1.6 µg/mL

DPCTWEVWGRECLQ [P190]
binding to sEGFR-MMB (in words) [1]: binds weakly | Relative Signal ([1]; construct SEGFR-MMB): 3937 ± 335 | competition with EGF, TGF-α, IMC-c225 (in words) [3]: did not compete with EGF or TGF-alpha | binding to dimeric EGFR in the presence of EGF or TGF-a ([5]; pIX display): increased in the presence of EGF or TGF-a | binding to the complex between EGF and sEGFR-MMB (in words) ([5]; phage ELISA): binds well | Relative Signal ([5]; phage ELISA, construct SEGFR-MMB + EGF): 29408 ± 259 | binding to sEGFR-His6 (in words) ([6]; coated monomeric sEGFR): virtually no binding | Relative Signal ([6]; construct sEGFR-His6): 6 | binding to Control-MMB (in words) [7]: fails to bind | binding to A431 cells in the presence of EGF [8]: increased | binding to A431 cells in the presence of EGF and cetuximab [8]: decreases | binding to A431 tumor cells [8]: bind to A431 | binding to MCF-7 [9]: not to MCF-7

VLCHRYYHPICYT [P145]
binding to A431 relative to positive control EGF phage [8]: weaker than that exhibited by a positive control phage that displayed EGF on pIII | binding to A431 tumor cells [8]: displayed binding to A431 tumor cells

KTCVSTTFDLWFVCFA (Random peptide) [P176]
binding to sEGFR-MMB (in words) [1]: bound both sEGFR-MMB and sEGFR-His6 | binding to sEGFR-His6 (in words) [2]: bound both sEGFR-MMB and sEGFR-His6 | competition with EGF, TGF-α, IMC-c225 (in words) [3]: competitive with IMC-c225 (cetuximab), EGF, and TGF-α | binding to A431 relative to positive control EGF phage [8]: comparable to that by a positive control phage that displayed EGF on pIX | binding to A431 tumor cells [8]: displayed binding to A431 tumor cells

GPCVLIRDYYLLCLE (Random peptide) [P179]
binding to sEGFR-MMB (in words) [1]: bound sEGFR-MMB when it was passively immobilized in ELISA wells | binding to biotinylated sEGFR-MMB captured on streptavidin (in words) [10]: not biotinylated sEGFR-MMB that had been captured on streptavidin

TLCRSFFHPLCYA (Random peptide) [P146]
binding to A431 relative to positive control EGF phage [8]: weaker than that exhibited by a positive control phage that displayed EGF on pIII | binding to A431 tumor cells [8]: displayed binding to A431 tumor cells

SGCLDALWQCVY (Random peptide) [P174]
binding to sEGFR-MMB (in words) [1]: bound both sEGFR-MMB and sEGFR-His6 | binding to sEGFR-His6 (in words) [2]: bound both sEGFR-MMB and sEGFR-His6 | competition with EGF, TGF-α, IMC-c225 (in words) [3]: not inhibited by the EGFR ligands tested | binding to A431 relative to positive control EGF phage [8]: comparable to that by a positive control phage that displayed EGF on pIX | binding to A431 tumor cells [8]: displayed binding to A431 tumor cells
